Data set [1] concerns the target T1, Flag-p66β (UniProt Q8WXI9 1-593). Briefly: pull-down; p66β alone; relatively high affinity; EMSA: 10 mM Tris pH 7.5, 50 mM KCl, 1 mM DTT, 5 mM MgCl2, 2.5% glycerol, 0.05% NP-40, 50 ng/ul poly(dI.dC), 600 fmol probe, 12 ug GST protein in 20 ul; gel 6% 0.5x TBE 4 C. Pull-down: NeutrAvidin beads, 8 h 4 C, washed in IP buffer (50 mM Tris pH 7.5, 150 mM NaCl, 1% Triton X-100). To be noted: protein: recombinant; tags: Flag; label: biotin (probe); blunt.

Data set [2] concerns the target T2, GST-Snail (UniProt O95863 1-264). Nature of the data set: EMSA; 5 mM Mg2+, poly(dI.dC); EMSA: 10 mM Tris pH 7.5, 50 mM KCl, 1 mM DTT, 5 mM MgCl2, 2.5% glycerol, 0.05% NP-40, 50 ng/ul poly(dI.dC), 600 fmol probe, 12 ug GST protein in 20 ul; gel 6% 0.5x TBE 4 C. Pull-down: NeutrAvidin beads, 8 h 4 C, washed in IP buffer (50 mM Tris pH 7.5, 150 mM NaCl, 1% Triton X-100). To be noted: protein: recombinant; tags: N-terminal GST (pGEX-4T-1); label: biotin (probe); blunt. In general terms: A gel shift assay detects complexes by their altered migration in electrophoresis.

In data set [3] the target is T1, Flag-p66β. Nature of the data set: competition; unlabeled mutant vs biotinylated WT probe; EMSA: 10 mM Tris pH 7.5, 50 mM KCl, 1 mM DTT, 5 mM MgCl2, 2.5% glycerol, 0.05% NP-40, 50 ng/ul poly(dI.dC), 600 fmol probe, 12 ug GST protein in 20 ul; gel 6% 0.5x TBE 4 C. Pull-down: NeutrAvidin beads, 8 h 4 C, washed in IP buffer (50 mM Tris pH 7.5, 150 mM NaCl, 1% Triton X-100). The settings on record: protein: recombinant; tags: Flag; 3' overhang 1 nt on strand 1 as printed (reverse strand lacks 5' C).

In data set [4] the target is T2, GST-Snail. The data set is described as above. To be noted: protein: recombinant; tags: N-terminal GST (pGEX-4T-1); 3' overhang 1 nt on strand 1 as printed (reverse strand lacks 5' C).

These results are taken from article PMC10307831, “GATA zinc finger protein p66β promotes breast cancer cell migration by acting as a co-activator of Snail”.

T1 sequence (Q8WXI9 whole entry): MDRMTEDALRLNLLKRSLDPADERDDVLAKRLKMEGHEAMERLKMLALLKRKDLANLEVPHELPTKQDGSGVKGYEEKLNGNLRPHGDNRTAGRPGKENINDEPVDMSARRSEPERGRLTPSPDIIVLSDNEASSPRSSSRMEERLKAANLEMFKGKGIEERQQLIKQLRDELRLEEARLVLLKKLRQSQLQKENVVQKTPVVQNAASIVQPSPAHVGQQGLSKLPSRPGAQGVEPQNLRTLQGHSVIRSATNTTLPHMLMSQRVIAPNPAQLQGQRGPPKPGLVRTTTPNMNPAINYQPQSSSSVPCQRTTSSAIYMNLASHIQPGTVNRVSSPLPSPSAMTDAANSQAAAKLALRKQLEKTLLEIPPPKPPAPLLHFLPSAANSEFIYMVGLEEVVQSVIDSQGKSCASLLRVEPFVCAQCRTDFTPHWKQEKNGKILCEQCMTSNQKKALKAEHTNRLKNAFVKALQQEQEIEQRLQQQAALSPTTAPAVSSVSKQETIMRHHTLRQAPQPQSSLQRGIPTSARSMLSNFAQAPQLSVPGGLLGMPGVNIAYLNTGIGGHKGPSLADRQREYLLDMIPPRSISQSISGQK
T2 sequence (O95863 whole entry): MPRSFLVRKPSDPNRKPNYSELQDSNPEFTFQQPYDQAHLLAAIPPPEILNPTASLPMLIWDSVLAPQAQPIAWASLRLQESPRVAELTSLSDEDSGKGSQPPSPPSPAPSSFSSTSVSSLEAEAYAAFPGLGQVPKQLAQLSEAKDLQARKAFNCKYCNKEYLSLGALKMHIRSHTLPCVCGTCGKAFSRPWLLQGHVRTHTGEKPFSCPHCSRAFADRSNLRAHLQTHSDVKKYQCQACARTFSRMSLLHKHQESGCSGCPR

B1: COL6A2-G-box-WT (dsDNA)
DNA 1: GGCCCCCTCCTCCCATCCGCG
DNA 2: CGCGGATGGGAGGAGGGGGCC
Consider B1, for which the binding result with Flag-p66β [1] and with GST-Snail [2] was “binds” in each case.

B2: COL6A2-G-box-MT (dsDNA)
DNA 1: GGCCCCCTAATAATATCCGCG
DNA 2: GCGGATATTATTAGGGGGCC
With B2, the binding result with Flag-p66β [3] and with GST-Snail [4] was “no binding” each time.
